Positions count from the first letter of the chain named. Ends that are not written are not given here. * marks the point of attachment. Biotin = O=C1N[C@H]2[C@H](CS[C@H]2CCCCC(=O)*)N1
T1: A-beta(12-28) peptide (human)
T1 construct: Bachem peptide captured on streptavidin chip; also called monomeric A-beta(12-28); central region
T1 peptide: Biotin-VHHQKLVFFAEDVGSNK

B1: ABII42E10 (VHH)
VHH: EVQLVESGGGLVQPGGSLRLSCAASGLTFTLYTMGWFRQAPGKEREFVAAISASGGTTYYADSVKGRFALSRDNAKNTVFLQMNTLKPEDTAEYLCAAAFRGFAINTPTSYNYWGQGTQVTVSS
B2: ABII35C7 (VHH)
VHH: EVQLVESGGGLVQPGGSLRLSCAASGRTFSIYNMGWFRQAPGKEREFVAAISRSGSSTYYGDSVKGRFTISRDNAKKTVYLQMNSLKPEDTAVYHCAAARFGTPINTRGSYDYWGQGTQVTVSS
B3: ABII42F5 (VHH)
VHH: EVQLVESGGGLVQAGDSLRLSCTASGRTFTDYNIGWFCQAPGKEREFVAAISGSGGSTYYADSAKGRFTISRDNAKNTVYLQMNSLKPEDTAVYACAAAQRRLAVNVDTSYNVWGQGTQVTVSS
B4: ABII35D2 (VHH)
VHH: EVQLVESGGGLVQAGGSLRLSCVASGLTFSSYNMGWFRQAPGKEREFVAAISRSGGSTYYTDSVKGRFTISRDSSKNTVYLQMNSLKPEDTADYYCAAALFGSAINLLSEYRYWGQGTQVTVSS
B5: ABII1E11 (VHH)
VHH: EVQLVESGGGLVQPGGSLRLSCAASGRTFSDYNMGWFHQAPGKEREIVAAISRSGRSTYYTVSVEGRFTISRDNAKNTVDLEMNSLKPEDTGIYYCAANSAGRAINLPLYKYWGQGTQVTVSS
B6: ABII35G2 (VHH)
VHH: EVQLVESGGGLVQAGGSLRLSCVASGRTFSNYGMGWFRQAPGKDREFVAAISRSGGTTYYEDDVKGRFTISRDNAKNSVYLQMNSLKPEDTAVYYCAARPSYVAVNIAASYNNWGQGTQVTVSS
B7: ABII61F6 (VHH)
VHH: EVQLVESGGGLVQTGGSLRLSCAASGSTVNINAMGWYRQAPGKQRELVAIINKRGVTNYADSTEGRFTISRDNSKRTLYLQMNSLKPEDTAVYYCNAVVGRYGRTYGYWGQGTQVTVSS
B8: ABII323-PEG40 (designed binder)
chain: VQLLESGGGLVQPGGSLRLSCAASGRTFNNYNMGWFRQAPGKGREFVAAVSRSGVSTYYADSVKGRFTISRDNSKNTVYLQMNSLRPEDTAVYYCAAAYRGTAINVRRSYSSWGQGTLVTVSSGGGGSGGGGSGGGGCGGGGSGGGGSGGGGSGGGGSEVQLLESGGGLVQPGGSLRLSCVHSGPTFRTDTMGWFRQAPGKGREFVAAVTWNSGRINYADSVKGRFTISRDNSKNTAYLQMNSLRPEDTAVYYCAAHRFVVGGNRVEDWRYWGQGTLVTVSS
modifications: PEG40 on the Cys at position 15 of the 35GS linker
notes: 059-35GSC-035
B9: ABII059-27GS-ABII035-MSA (designed binder)
chain: EVQLLESGGGLVQPGGSLRLSCAASGRTFNNYNMGWFRQAPGKGREFVAAVSRSGVSTYYADSVKGRFTISRDNSKNTVYLQMNSLRPEDTAVYYCAAAYRGTAINVRRSYSSWGQGTLVTVSSGGGSGGGGSGGGGSGGGGSGGGGSGGGEVQLLESGGGLVQPGGSLRLSCVHSGPTFRTDTMGWFRQAPGKGREFVAAVTWNSGRINYADSVKGRFTISRDNSKNTAYLQMNSLRPEDTAVYYCAAHRFVVGGNRVEDWRYWGQGTLVTVSS
notes: built from the printed name; not shown: mouse serum albumin
B10: ABII059-27GS-ABII035-MSA_D3 (designed binder)
chain: B9 chain
notes: built from the printed name; not shown: domain III of mouse serum albumin
B11: ABII111E5cl1 (VHH)
VHH: EVQLVESGGGLVLAGGSLRLSCVHSGPTFLTDTMGWFRQAPGKEREFVAAVTWNSGRINYADSVKGRFTVSRDNTRNAAYLQMSGLKDEDTAVYYCTAHRFVVGGREVQDWRYWGQGTQVTVSS
notes: c-myc and (His)6 tags
B12: ABIIPMP111B4 (VHH)
VHH: B11 VHH with L30W, N54S, I58A, F101G, R106W, E107V, Q109V
notes: c-myc and (His)6 tags
B13: ABIIPMP111F2 (VHH)
VHH: B11 VHH with L30S, I58T, H99N, F101H, V102S, G105R, R106L, E107S, Q109G, T118S
notes: c-myc and (His)6 tags
B14: ABIIPMP111E4 (VHH)
VHH: B11 VHH with L30S, I58T, H99A, F101L, V102T, G105S, R106L, E107S, Q109G
notes: c-myc and (His)6 tags
B15: ABIIPMP111C4 (VHH)
VHH: B11 VHH with I58A, F101S, R106V, E107G, Q109W, G115S
notes: c-myc and (His)6 tags
B16: ABIIPMP111C6 (VHH)
VHH: B11 VHH with L30W, I58L, F101Q, R106V, E107Q, Q109L
notes: c-myc and (His)6 tags
B17: ABIIPMP111B9 (VHH)
VHH: B11 VHH with L30G, I58A, R106G, E107C, Q109K
notes: c-myc and (His)6 tags
B18: ABII315-PEG40 (designed binder)
chain: EVQLLESGGGLVQPGGSLRLSCAASGRTFNNYNMGWFRQAPGKGREFVAAVSRSGVSTYYADSVKGRFTISRDNSKNTVYLQMNSLRPEDTAVYYCAAAYRGTAINVRRSYSSWGQGTLVTVSSGGGGCGGGSEVQLLESGGGLVQPGGSLRLSCVHSGPTFRTDTMGWFRQAPGKGREFVAAVTWNSGRINYADSVKGRFTISRDNSKNTAYLQMNSLRPEDTAVYYCAAHRFVVGGNRVEDWRYWGQGTLVTVSS
modifications: PEG40 on the Cys at position 5 of the 9GS linker
notes: 059-9GSC-035; purified as His6-tagged construct before PEGylation
B19: reference VHH 1B (VHH)
VHH: QVQLQESGGGLVQPGGSLRLSCAASEFTLDYYSIAWFRQAPGKEREGVSCISSYDGSTSYADSVKGRFTISRDNAKNTVYLQMNSLKPEDTAIYYCAAGIRDWATLREYEYDDWGQGTQVTVSS
notes: from WO2007/35092
B20: reference VHH 3A (VHH)
VHH: AVQLVESGGGLVRDGDSLRLSCAASGRTFSSYVMGWFRQAPGKEREFVAAIGWSGGSTAYADSVKGRFTISRDNARNTVYLQMNSLKPEDTAVYYCASAPTRWVPRDSRFYDRWGQGTRVTVSS
notes: from WO2007/35092
B21: reference VHH 11G (VHH)
VHH: QVQLQESGGGLVQPGGSLRLSCAASGSIFSINTMAWYRQAPGKERDLVAAIISSGSTNYADSVKGRFTISRDNTKNTVYLQMNSLKLEDTAVYYCNAAIRRSVIDAWGAYWGQGTQVTVSS
notes: from WO2007/35092
B22: reference VHH 31-1 (VHH)
VHH: EVQLQASGGGSVQPGGSLRLSCAASGFIFGWSTMSWVRQAPGKGLEWVSTISGGGSATTYTDSVKGRFTISRDRAKNTLYLQMNSLKPEDTAIYYCNADVSTGFRYQRKDYWGRGTQVTVSS
notes: from WO2004/44204; also called V31-1

Target: T1, A-beta(12-28) peptide
Experiment: SPR on captured A-beta(12-28)
Experimental: After capturing, surfaces are blocked by injecting an excess (200 μg/ml) of d-biotin for 180 s at 5 μl/min. A reference surface is washed and blocked with d-biotin. HBS-EP+buffer is used as the running buffer and experiments are performed at 25° C. For off-rate screening, periplasmic extracts of VHHs are injected at a 10-fold dilution for 2 min at 45 μl/min and are allowed to dissociate for 10 min. […] Between different VHH samples, the surfaces are regenerated with regeneration buffer (50 mM NaOH) for 25 s at 45 μl/min followed by 10 s 6M GuHCl at 45 μl/min if regeneration is incomplete. […] Data are double referenced by subtraction of the curves on the reference channel and of a blank running buffer injection. Sensorgrams are evaluated by fitting a 1:1 dissociation model using the Biacore T100 Evaluation software v1.1.1.
B1: binds. B2: binds. B3: binds. B4: binds. B5: binds. B6: binds. B7: binds.

The binders below were run against T2, aggregated A-beta(1-40) peptide (BAA) (human) (assay: BAA ELISA).
T2 construct: also called A-beta peptide aggregates
Work on B1 yielded an EC50 of 2.6 nM. With B2 the EC50 was 1.3 nM. Binder B3 has an EC50 of 20 nM. B4 showed an EC50 of 12.8 nM. In the case of B5, the EC50 is reported as 19.2 nM. Binder B6 has an EC50 of 5.4 nM. B7 showed an EC50 of 14.5 nM.

What follows are binders tested against T3, human A-beta(1-40) peptide, monomeric (BAM) (human, biotin at the C-terminus in capture ELISA, SPR and TR-FRET; not biotinylated where coated directly (Example 7)) (assay: TR-FRET competition, labelled ABII60A10; extrapolated curve).
T3 construct: synthetic peptide (Anaspec), TFA/HFIP treated to give monomer; also called monomeric A-beta
B1 showed an IC50 of 205 nM. B2 gave an IC50 of 206 nM. With B3 the IC50 was 228 nM. For B4, the IC50 was 773 nM. B5 showed an IC50 of 844 nM. B6 showed an IC50 of 645 nM. With B7 the IC50 was 967 nM.

The binders below were run against T3, human A-beta(1-40) peptide, monomeric … (assay: ABII002 TR-FRET competition assay).
Work on B8 yielded an IC50 of 0.18 nM. In the case of B9, the IC50 is reported as 0.19 nM. With B10 the IC50 was 0.1 nM.

What follows are binders tested against T3, human A-beta(1-40) peptide, monomeric … (assay: BAM ELISA).
B1 gave an EC50 of 17.5 nM. B2 gave an EC50 of 1.9 nM. Work on B3 yielded an EC50 of 41.1 nM. B4 was tested, and the EC50 was 37.5 nM. In the case of B5, the EC50 is reported as 27.3 nM. Work on B6 yielded an EC50 of 10.7 nM. B7 was tested, and the EC50 was 469 nM.

These binders were tested against T3, human A-beta(1-40) peptide, monomeric … (assay: TR-FRET competition, labelled ABII42D4).
Work on B11 yielded an IC50 of 8.8 nM. B12 was tested, and the IC50 was 5.1 nM. Work on B13 yielded an IC50 of 3.4 nM. In the case of B14, the IC50 is reported as 6.1 nM. In the case of B15, the IC50 is reported as 8.6 nM. B16 was tested, and the IC50 was 6 nM. B17 showed an IC50 of 19 nM.

The binders below were run against T3, human A-beta(1-40) peptide, monomeric … (assay: cell-based or functional assay).
B1 was tested, and the “inhibition of peptide aggregation (ThT fluorescence), 28 µM VHH” value (shortened to “inhibition of peptide aggregation”) was 75%. With B2 the “inhibition of peptide aggregation” value was 82%. For B3, the “inhibition of peptide aggregation” value was 79%. For B4, the “inhibition of peptide aggregation” value was 73%. For B6, the “inhibition of peptide aggregation” value was 76%.

What follows are binders tested against T3, human A-beta(1-40) peptide, monomeric … (assay: ABII050 TR-FRET competition assay).
Work on B8 yielded an IC50 of 0.2 nM. With B9 the IC50 was 0.18 nM. Binder B10 has an IC50 of 0.12 nM. For B18, the IC50 was 0.31 nM.

Target: T3, human A-beta(1-40) peptide, monomeric …
Experiment: BAM ELISA
Remark: another data set of the same source
B19: no binding. B20: no binding. B21: no binding. B22: no binding.

Target: T2, aggregated A-beta(1-40) peptide (BAA)
Experiment: BAA ELISA
Remark: another data set of the same source
B19: no binding. B20: no binding. B21: no binding. B22: no binding.
